Reference: patent US20240317834A1, “COMPOSITIONS AND METHODS FOR NEUROLOGICAL DISEASES” (CODA BIOTHERAPEUTICS, INC., priority 2020, published 2024)
Changes are numbered by the printed parent chain. In names and notes the source's numbering stands.

B1: CODA236: engineered chimeric LGIC receptor, R101F in SEQ ID NO: 33 (protein)
chain: MRCSPGGVWLALAASLLHVSLQGEFQRKLYKELVKNYNPLERPVANDSQPLTVYFSLSLLQIMDVDEKNQVLTTNIWLQMSWTDHYLQWNVSEYPGVKTVFFPDGQIWKPDILLYNSADERFDATFHTNVLVNSSGHCQYLPPGIFKSSCPMDLKNFPMDVQTCKLKFGSWSYGGWSLDLQMQEADISGYIPNGEWDLVGIPGKRSERFYECCKEPYPDVTFTVTMRRRMGYYLIQMYIPSLLIVILSWISFWINMDAAPARVGLGITTVLTMTTQSSGSRASLPKVSYVKAIDIWMAVCLLFVFSALLEYAAVNFVSRQHKELLRFRRKRRHHKSPMLNLFQEDEAGEGRFNFSAYGMGPACLQAKDGISVKGANNSNTTNPPPAPSKSPEEMRKLFIQRAKKIDKISRIGFPMAFLIFNMFYWIIYKIVRREDVHNQ
modifications: synthetic sequence of chimeric LGIC
B2: CODA238: engineered chimeric LGIC receptor, R101W in SEQ ID NO: 33 (protein)
chain: B1 chain with F101W
modifications: synthetic sequence of chimeric LGIC
B3: CODA237: engineered chimeric LGIC receptor, R101M in SEQ ID NO: 33 (protein)
chain: B1 chain with F101M
modifications: synthetic sequence of chimeric LGIC

Each molecule was assayed on Lenti-X 293T cells (assay: YFP fluorescence quenching anion reporter plate reader assay of engineered receptors stimulated with acetylcholine or a non-native ligand). Settings: 1 nM CNL001, first column.
Type: cell-based
Description: To screen these mutant LGICs for those having novel response profiles to ligands, an anion reporter assay was developed to assess the function of the LGICs in a high throughput format. In this assay, cells expressing a YFP reporter whose fluorescence is quenched in the presence of anion are transfected with DNA encoding the channel of interest. Upon exposure to ligand, channels that are activated will flux anion, resulting in a dose-dependent quench of the YFP that can be detected on a plate reader. The greater the quench signal (i.e., the more positive the value), the higher the ligand activity on the receptor is.
Lenti-X 293T cells (LX293T, Clontech) were maintained in DMEM containing 10% FBS and 1% penicillin/streptomycin (Invitrogen). […] Two days before assay, cells were split at a density of 20,000 cells/well in a 96-well tissue culture plate coated with poly-d lysine (Thermo Scientific). The next day, the cells were transiently transfected with 0.1 μg of DNA per well using standard Fugene protocol (Promega). On the day of assay, cells were washed 2 times in 1× extracellular solution (1×ECS: 140 mM NaCl, 5 mM KCl, 1 mM MgCl2, 2 mM CaCl2), 10 mM HEPES, 10 mM glucose, pH 7.2, mOsms 300). After the last wash, 100 μL of 1×ECS was added to the wells and the plate was incubated at 37° C. for 30 min. While incubating the plate, the drugs were diluted to a 2× concentration in 1×ECS-NaI (same components as 1×ECS except the 140 mM NaCl was replaced by 140 mM NaI). The plates were then read on a Flexstation3 (Molecular Devices). Each well, 8 wells at a time, of the plate is read for 2 min using a Flexstation3 (Molecular Devices) as follows: 1) a baseline YFP fluorescence is read for 17 sec, 2) 100 μL of ligand is added, and 3) the changes in YFP fluorescence are then measured every 1.3 sec for 1 minute and 43 seconds. The percent quench is calculated from the average fluorescence of the last 10 seconds of the read divided by the baseline average of the first 15 seconds prior to the ligand addition.
FIGS. 1A-1J provide heat maps of the percent quench of YFP fluorescence following stimulation by various doses of either acetylcholine or the non-native ligand as indicated in the Figures. CODA71 (SEQ ID NO: 33) was used as a control, and CODA75 (SEQ ID NO: 29, a non-responding chimeric engineered receptor) was used as the negative control. Quenching of the fluorescence signal, as indicated by blue shaded cells, indicate the level of engineered receptor activation by the non-native ligand at that concentration.

Row | Molecule | YFP fluorescence quenching using CNL001 [%]
1 | B1 | 9.048
2 | B2 | 32.42
3 | B3 | −2.114

Same assay, conditions: 1 nM CNL001, second column

Row | Molecule | YFP fluorescence quenching using CNL001 [%]
4 | B1 | 26.601
5 | B2 | 54.768
6 | B3 | −5.079

Same assay, conditions: 3 nM brd

Row | Molecule | YFP fluorescence quenching using TC-5619/Bradanicline [%]
7 | B1 | 49.33
8 | B2 | 74.7
9 | B3 | −14.87

Same assay, conditions: 3 nM var, first column

Row | Molecule | YFP fluorescence quenching using Varenicline
10 | B1 | 19.949
11 | B2 | 17.896
12 | B3 | 18.429

Same assay, conditions: 3 nM var, second column

Row | Molecule | YFP fluorescence quenching using Varenicline
13 | B1 | 22.334
14 | B2 | 12.564
15 | B3 | 16.83

Same assay, conditions: 10 nM CNL001, first column

Row | Molecule | YFP fluorescence quenching using CNL001 [%]
16 | B1 | 71.533
17 | B2 | 75.149
18 | B3 | 15.096

Same assay, conditions: 10 nM CNL001, second column

Row | Molecule | YFP fluorescence quenching using CNL001 [%]
19 | B1 | 72.948
20 | B2 | 75.339
21 | B3 | 50.554

Same assay, conditions: 30 nM brd

Row | Molecule | YFP fluorescence quenching using TC-5619/Bradanicline [%]
22 | B1 | 77.38
23 | B2 | 76.78
24 | B3 | 69.93

Same assay, conditions: 30 nM fac

Row | Molecule | YFP fluorescence quenching using Facinicline
25 | B1 | −28.54
26 | B2 | −19.61
27 | B3 | −24.14

Same assay, conditions: 30 nM var, first column

Row | Molecule | YFP fluorescence quenching using Varenicline
28 | B1 | 15.764
29 | B2 | 16.263
30 | B3 | 23.07

Same assay, conditions: 30 nM var, second column

Row | Molecule | YFP fluorescence quenching using Varenicline
31 | B1 | 16.213
32 | B2 | 22.117
33 | B3 | 15.868

Same assay, conditions: 50 nM CNL001, first column

Row | Molecule | YFP fluorescence quenching using CNL001 [%]
34 | B1 | 75.895
35 | B2 | 75.881
36 | B3 | 66.585

Same assay, conditions: 50 nM CNL001, second column

Row | Molecule | YFP fluorescence quenching using CNL001 [%]
37 | B1 | 74.238
38 | B2 | 77.844
39 | B3 | 74.462

Same assay, conditions: 50 nM abt

Row | Molecule | YFP fluorescence quenching using ABT-126 [%]
40 | B1 | −18.69
41 | B2 | −14.97
42 | B3 | −24.34

Same assay, conditions: 100 nM CNL001, first column

Row | Molecule | YFP fluorescence quenching using CNL001 [%]
43 | B1 | 76
44 | B2 | 78
45 | B3 | 78

Same assay, conditions: 100 nM CNL001, second column

Row | Molecule | YFP fluorescence quenching using CNL001 [%]
46 | B1 | 75.861
47 | B2 | 78.575
48 | B3 | 77.411

Same assay, conditions: 100 nM CNL002

Row | Molecule | YFP fluorescence quenching using CNL002 [%]
49 | B1 | −9.56
50 | B2 | 2.95
51 | B3 | −8.68

Same assay, conditions: 100 nM abt

Row | Molecule | YFP fluorescence quenching using ABT-126 [%]
52 | B1 | −23.01
53 | B2 | −14.66
54 | B3 | −20.22

Same assay, conditions: 100 nM azd0328

Row | Molecule | YFP fluorescence quenching using AZD-0328 [%]
55 | B1 | −9.78
56 | B2 | 22.94
57 | B3 | −17.84

Same assay, conditions: 300 nM abt

Row | Molecule | YFP fluorescence quenching using ABT-126 [%]
58 | B1 | −20.92
59 | B2 | −16.35
60 | B3 | −20.57

Same assay, conditions: 300 nM azd0328

Row | Molecule | YFP fluorescence quenching using AZD-0328 [%]
61 | B1 | 49.64
62 | B2 | 75.38
63 | B3 | −11.98

Same assay, conditions: 300 nM brd

Row | Molecule | YFP fluorescence quenching using TC-5619/Bradanicline [%]
64 | B1 | 77.51
65 | B2 | 77.01
66 | B3 | 76.57

Same assay, conditions: 300 nM fac

Row | Molecule | YFP fluorescence quenching using Facinicline
67 | B1 | 72.98
68 | B2 | 76.54
69 | B3 | −14.38

Same assay, conditions: 300 nM var, first column

Row | Molecule | YFP fluorescence quenching using Varenicline
70 | B1 | 23.135
71 | B2 | 77.492
72 | B3 | 18.819

Same assay, conditions: 300 nM var, second column

Row | Molecule | YFP fluorescence quenching using Varenicline
73 | B1 | 22.987
74 | B2 | 79.056
75 | B3 | 19.155

Same assay, conditions: 500 nM var, first column

Row | Molecule | YFP fluorescence quenching using Varenicline
76 | B1 | 35.048
77 | B2 | 80.186
78 | B3 | 19.117

Same assay, conditions: 500 nM var, second column

Row | Molecule | YFP fluorescence quenching using Varenicline
79 | B1 | 34.188
80 | B2 | 80.065
81 | B3 | 22.593

Same assay, conditions: 1 uM CNL001, first column

Row | Molecule | YFP fluorescence quenching using CNL001 [%]
82 | B1 | 76.367
83 | B2 | 81.126
84 | B3 | 79.06

Same assay, conditions: 1 uM CNL001, second column

Row | Molecule | YFP fluorescence quenching using CNL001 [%]
85 | B1 | 76.162
86 | B2 | 79.482
87 | B3 | 79.162

Same assay, conditions: 1 uM CNL002

Row | Molecule | YFP fluorescence quenching using CNL002 [%]
88 | B1 | 56.9
89 | B2 | 67.93
90 | B3 | −2.24

Same assay, conditions: 1 uM abt

Row | Molecule | YFP fluorescence quenching using ABT-126 [%]
91 | B1 | 4.99
92 | B2 | 50.02
93 | B3 | −19.55

Same assay, conditions: 1 uM tc6987

Row | Molecule | YFP fluorescence quenching using TC-6987
94 | B1 | 45.34
95 | B2 | 72.47
96 | B3 | −21.62

Same assay, conditions: 1 uM var, first column

Row | Molecule | YFP fluorescence quenching using Varenicline
97 | B1 | 71.031
98 | B2 | 81.263
99 | B3 | 24.525

Same assay, conditions: 1 uM var, second column

Row | Molecule | YFP fluorescence quenching using Varenicline
100 | B1 | 71.005
101 | B2 | 80.702
102 | B3 | 23.383

Same assay, conditions: 10 uM tc6987

Row | Molecule | YFP fluorescence quenching using TC-6987
103 | B1 | 70.04
104 | B2 | 72.04
105 | B3 | 21.52

Same assay, conditions: 30 uM CNL002

Row | Molecule | YFP fluorescence quenching using CNL002 [%]
106 | B1 | 70.28
107 | B2 | 73.02
108 | B3 | 66.99

Same assay, conditions: 30 uM azd0328

Row | Molecule | YFP fluorescence quenching using AZD-0328 [%]
109 | B1 | 81.14
110 | B2 | 81.8
111 | B3 | 81.2

Same assay, conditions: 30 uM fac

Row | Molecule | YFP fluorescence quenching using Facinicline
112 | B1 | 87.6
113 | B2 | 87.94
114 | B3 | 88.78

Same assay, conditions: 500 uM tc6987

Row | Molecule | YFP fluorescence quenching using TC-6987
115 | B1 | 75.86
116 | B2 | 76.56
117 | B3 | 60.33

Same assay, conditions: acetylcholine 10 uM

Row | Molecule | percent quench of YFP fluorescence, 10 uM ach [%]
118 | B1 | −18.24
119 | B2 | −16.58
120 | B3 | −16.79

Same assay, conditions: acetylcholine 100 uM

Row | Molecule | percent quench of YFP fluorescence, 100 uM ach [%]
121 | B1 | 60
122 | B2 | 75.18
123 | B3 | −18.63

Same assay, conditions: acetylcholine 1 mM

Row | Molecule | percent quench of YFP fluorescence, 1 mM ach [%]
124 | B1 | 66.07
125 | B2 | 78.99
126 | B3 | 46.28

Same assay, conditions: acetylcholine 3 mM

Row | Molecule | percent quench of YFP fluorescence, 3 mM ach [%]
127 | B1 | 71.38
128 | B2 | 75.74
129 | B3 | 69.31
